Test: soluble on expression in E. coli; label from the status in PepcDB or PDB records

| Sequence | soluble on expression in E. coli |
| --- | --- |
| MGSDKIHHHHHHQEAKGSADETKVEVQYLDPRDPFEGFNRAMWDFNYLYLDKYILKPVAHGYNDYLPLPVKDGVHNFTTNFDEPSSLVNNILQGKWSWAANAGGRFTVNTSLGILGIFDVAQMMGMERKQDDFSEVLGFYGVPNGPYFMAPFFGPFVTREIASDWVDGLYFPLSELTMWQSALKWGMKSLHNRAEAIDRERLLDNALDPYAFVKDAYFQHVDYKVYDGNVPTTQEDDELLDEFMEELE | not soluble |
| MGEEEESLAILRRHVMNELLDTERAYVEELLCVLEGYAAEMDNPLMAHLISTGLQNKKNILFGNMEEIYHFHNRIFLRELESCIDCPELVGRCFLERMEEFQIYEKYCQNKPRSESLWRQCSDCPFFQECQKKLDHKLSLDSYLLKPVQRITKYQLLLKEMLKYSKHCEGAEDLQEALSSILGILKAVNDSMHLIAITGYDGNLGDLGKLLMQGSFSVWTDHKKGHTKVKELARFKPMQRHLFLHEKAVLFCKKREENGEGYEKAPSYSYKQSLNMTAVGITENVKGDTKKFEIWYNAREEVYIIQAPTPEIKAAWVNAIRKVLTSQLQACREASQHRALEQSHSLEHHHHHH | soluble |
| MFRSSLTHLQAVSRVFIMGGHITPFVGKGSKLFIDKKHPDFGKKQNMTLEEILATTVQHTIENTGLNGKEDIVDQVVVGNFLGELFSSQGHLGPAAIGSLTYGQAGAKNPLMYKPAMRVEGACASGGLAVVSATNALKAGSADIALAVGVEVQTTATARVGGDYLARAADYQRQRKLDDFTFPCLFAKRMKYIAEHNHFTMEDTARVAAKAYANGNRNPLAHMHTRKLSFEQCNGEDPSNVKFLGNETYKEYLRMTDCSQVSDGGAGVVLANEEGLKKMGLSPNDSRLVEIKSIACAVSNLYEDPDDACCMFTSRQAAQKALSMANVKPSDLNVAEVHDCFTIAEMLMYEALGIAEYGHAKDLIRNGETTLEGRIPVNTGGGLLSFGHPVGATGIKQVMEVYRQMKGQCGAYQMKKIPALGATLNMGGDDKTAVSAVLQNI | not soluble |
| MMMDLNIRRVVLDVDKGLNRPTLVELAAAIEKVQGVEAVNIIVTEMDMETMGTNITVEGTNINYDELIETIENTGSAIHSVDEIAVGKRLIENVRRNQN | soluble |
| MSLNTIIQKAKETHELSRDEIIALLKDDSINEELFKAADEVRKKYLGDEVHLRGLIEFTNICKRNCMYCGLRRDNKNLNRYRLSHEEIIDFAKKAVGYGYKTLVLQGGEDDYYTVERLVPIVKDLKALGVALTLSIGERPFEEYEALKKAGADRFLLRIETTDRELYEELDPGMSHENRIQCLKNLRKLGYEVGSGCLVGLPGQKIESLADDILFFKELDVDMNGIGPFIPNEDTPLKDAEGGQFELALKVMAIVRLLLPDINIPATTAMETLNKQGRVIALQCGANVVMPNVTEGEYRKLYALYPGKICTGDTPAHCRGCISGKIRGIGRIVSDGPGFRANGFKPKTEGHHHHHH | soluble |
| MASSLNEDPEGSRITYVKGDLFACPKTDSLAHCISEDCRMGAGIAVLFKKKFGGVQELLNQQKKSGEVAVLKRDGRYIYYLDWMWSLEHHHHHH | not soluble |
| AETIVMASTTSTEQSGLFGHLLPAFKKASGIDIKVVAQGTGQALDMARRGDADVLFVHDQVAEEKFVADGYAVKRYPVMYNDFILVGPAKDPAGVKGNDIVAALGKLAKDNADFISRGDKSGTHAAELRFWKQTGSDSKGSGYKECGCGMGPALNMGSSMNAYVLSDRGTWLSFKNPGELKILVEGDKRLFNQYGVMVVNPAKFPHVKAKAAQQFVDWVTSKAGQDAIASYQV | not soluble |
| MATLATKKATLVAALKDLQRVTVAFSGGIDSTLVLKMALDVLGRDNVTAVVANSELFTDEEFDKAMSLAEELGANVQGTTLDYLSDDHIKNNTPDSWYYAKKMFYSRLNDIAANNGSAAVLDGMIKNDENDYRPGLKARSEAGARSLLQEADFFKTDVRALAQELGLTNWNKVASCSVSSRFPYGTTLTHDNIAQVMAAEKYLRSLGFPTVRVRFHNDIARIELPEARIGDFLVFNDRVNRQLQSLGFRYVTLDLGGFRSGRMNDTLTKAQLATFA | not soluble |
| MDRKIREQIIAIYSNLQHKQDLTQFAHCLTTKADDNCEDFFNLGLQFQNNQLTALGFNGEGCIISTIASELTLSALEGKTIKEAIVLLEQFMEAVQTGSLSTPLPQALQLLWDFQIDQKRLNCLLLTPQNLLQWLKDFSH | soluble |
| MSLKIRSLHTDALKKLAVKCEDLFMAGQKDQLRFGVDSWSDFRLTSDKPCCEAGDAVYYTASYAKDPLNNYAVKICKSKAKESQQYYHSLAVRQSLAVHFNIQQDCGHFLAEVPNRLLPWEDPDDPEKDEDDMEETEEDAKGETDGKNPKPCSEAASSQKENQGVMSKKQRSHVVVITREVPCLTVADFVRDSLAQHGKSPDLYERQVCLLLLQLCSGLEHLKPYHVTHCDLRLENLLLVHYQPGGTAQGFGPAEPSPTSSYPTRLIVSNFSQAKQKSHLVDPEILRDQSRLAPEIITATQYKKCDEFQTGILIYEMLHLPNPFDENPELKEREYTRADLPRIPFRSPYSRGLQQLASCLLNPNPSERILISDAKGILQCLLWGPREDLFQTFTACPSLVQRNTLLQNWLDIKRTLLMIKFAEKSLDREGGISLEDWLCAQYLAFAEGHHHHHH | not soluble |
| MGHHHHHHSHEEEGSPGGREDGFTAEHLAAEAMAADMDPWLVFDARTTPATELDAWLAKYPPSQVTRYGDPGSPNSEPVGWIAVYGQGYSPNSGDVQGLQAAWEALQTSGRPITPGTLRQLAITHHVLSGKWLMHLAPGFKLDHAWAGIARAVVEGRLQVAKVSPRAKEGGRQVICVYTDDFTDRLGVLEADSAIRAAGIKCLLTYKPDVYTYLGIYRANRWHLCPTLYESRFQLGGSARGSRVLDRANNVELT | soluble |
| MLSEETIRVIKSTVPLLKEHGTEITARMYELLFSKYPKTKELFAGASEEQPKKLANAIIAYATYIDRLEELDNAISTIARSHVRRNVKPEHYPLVKECLLQAIEEVLNPGEEVLKAWEEAYDFLAKTLITLEKKLYSQP | soluble |
| MNRIKVAILFGGCSEEHDVSVKSAIEIAANINKEKYEPLYIGITKSGVWKMCEKPCAEWENENCYSAVLSPDKKMHGLLVKKNHEYEINHVDVAFSALHGKSGEDGSIQGLFELSGIPFVGCDIQSSAICMDKSLTYIVAKNAGIATPAFWVINKDDRPVAATFTYPVFVKPARSGSSFGVKKVNSADELDYAIESARQYDSKILIEQAVSGCEVGCAVLGNSAALVVGEVDQIRLQYGIFRIHQEVEPEKGSENAVITVPADLSAEERGRIQETVKKIYKTLGCRGLARVDMFLQDNGRIVLNEVNTLPGFTSYSRYPRMMAAAGISLPELIDRLIVLALKG | soluble |
| MIIEHNGNIHKIARMTGNKNNFLEIILSDIHENIKIKPLTIKVKGENVINILPEEVSFYVKQGVDLIYEKYKRKFFISEISFCQSDSRPSSIYAFLTFHLLEDIIKNESPSNYT | not soluble |
| AEVYNKDGNKLDLYGKVDGLHYFSDDKSVDGDQTYMRLGFKGETQVTDQLTGYGQWEYQIQGNAPESENNSWTRVAFAGLKFQDIGSFDYGRNYGVVYDVTSWTDVLPEFGGDTYGSDNFMQQRGNGFATYRNTDFFGLVDGLNFAVQYQGQNGSVSGENDPDFTGHGITNNGRKALRQNGDGVGGSITYDYEGFGVGAAVSSSKRTWDQNNTGLIGTGDRAETYTGGLKYDANNIYLAAQYTQTYNATRVGSLGWANKAQNFEAVAQYQFDFGLRPSVAYLQSKGKNLGVVAGRNYDDEDILKYVDVGATYYFNKNMSTYVDYKINLLDDNQFTRAAGINTDDIVALGLVYQF | soluble |
| MSQANRTNGLVDYKELETNILSSIQEGKPLTGRDGALTPFIKRLLEASLEGEIESHMSAKSEENNRRNGRNAKTLRTSAGSFELLTPRDREGNFEPQIVKKRQTSLHPELEAKVLSTYASGMGYRDIASHVEEIYDHKISAAEISSITDKLLPIINEWRSRPLQSVYPIVFMDGMFFKVKEDGHCVSKCMYNILGINQNGRKEVLGFYLAESEGATFWLGVLNDLKERGVEDILIACIDGLKSFPTAINSVFPSAEVQLCIVHQIRNSLKYVSSKDVKVFMNDLKKIYRASSKEIAENYLLELEEKWGEKYPLVIKSWQNNWENLSSYFKYSGPVRKLIYTTNPIEGLHRQIRKFTKTKGSFTSTNALYKQVYCAIKKVEQKWIMALPNWALTMSQLDIFFPGRLKIELN | soluble |

— the DeepSol protein solubility set
